# Measurements as given in PMC6927069.
# Molecular target: latent myostatin
# Experiment: BLI
# Settings: second pH 7.4
substance,measurement,value
SRK-015,"dissociation rate (koff), fold lower at pH 7.4 than at pH 5.0",approximately 20-fold
